US20230013244A1 (BioIncept, LLC, priority 2014, published 2023)

Tests used:
Test in all cases: PIF affinity column + LC-MS/MS, CD14+ cell lysate
[1] = target: 78 kDa glucose-regulated protein (human) (UniProt P11021)
[2] = target: 14-3-3 protein eta (human) (UniProt Q04917)
Matrin-3 (human) = Matrin-3 (human) (UniProt A8MXP9)
Tropomodulin-3 (human) = Tropomodulin-3 (human) (UniProt Q9NYL9)
[3] = target: Actinin alpha 1 isoform 3 (human) (UniProt P12814)
Vimentin (human) = Vimentin (human) (UniProt P08670)
Thrombospondin-1 (human) = Thrombospondin-1 (human) (UniProt P07996)
Myosin-9 (human) = Myosin-9 (human) (UniProt P35579)
[4] = target: Isoform 2 of Adenylyl cyclase-associated protein 1 (human) (UniProt Q01518)
Coronin-1A (human) = Coronin-1A (human) (UniProt P31146)
Thymosin alpha-1 (human) = Thymosin alpha-1 (human) (UniProt P06454)
[5] = target: Protein disulfide-isomerase A4 (human) (UniProt P13667)
[6] = target: Tropomyosin alpha-4 chain (human) (UniProt P67936)
Plastin-2 (human) = Plastin-2 (human) (UniProt P13796)
[7] = target: 14-3-3 protein zeta/delta (human) (UniProt P63104)
[8] = target: Isoform SV of 14-3-3 protein epsilon (human) (UniProt P62258)
[9] = target: Tropomyosin alpha-3 chain (human) (UniProt P06753)
[10] = target: Isoform 2 of Ras suppressor protein 1 (human) (UniProt Q15404)
Hornerin (human) = Hornerin (human) (UniProt Q86YZ3)
Endoplasmin (human) = Endoplasmin (human) (UniProt P14625)
[11] = target: Isoform 2 of Heat shock protein HSP 90-alpha (human) (UniProt P07900)
Protein S100-A8 (human) = Protein S100-A8 (human) (UniProt P05109)
[12] = target: Actin, cytoplasmic 2 (human) (UniProt P63261)
[13] = target: Heat shock protein HSP 90-beta (human) (UniProt P08238)
[14] = target: Tubulin alpha-4A chain (human) (UniProt P68366)
Gelsolin (human) = Gelsolin (human) (UniProt P06396)
[15] = target: Lymphocyte-specific protein 1 (human) (UniProt P33241)
Calreticulin (human) = Calreticulin (human) (UniProt P27797)
[16] = target: 14-3-3 protein theta (human) (UniProt P27348)
[17] = target: Isoform Short of 14-3-3 protein beta/alpha (human) (UniProt P31946)
[18] = target: Bridging integrator 2 (human) (UniProt Q9UBW5)
Chain of Bridging integrator 2 (human) (Q9UBW5 whole entry): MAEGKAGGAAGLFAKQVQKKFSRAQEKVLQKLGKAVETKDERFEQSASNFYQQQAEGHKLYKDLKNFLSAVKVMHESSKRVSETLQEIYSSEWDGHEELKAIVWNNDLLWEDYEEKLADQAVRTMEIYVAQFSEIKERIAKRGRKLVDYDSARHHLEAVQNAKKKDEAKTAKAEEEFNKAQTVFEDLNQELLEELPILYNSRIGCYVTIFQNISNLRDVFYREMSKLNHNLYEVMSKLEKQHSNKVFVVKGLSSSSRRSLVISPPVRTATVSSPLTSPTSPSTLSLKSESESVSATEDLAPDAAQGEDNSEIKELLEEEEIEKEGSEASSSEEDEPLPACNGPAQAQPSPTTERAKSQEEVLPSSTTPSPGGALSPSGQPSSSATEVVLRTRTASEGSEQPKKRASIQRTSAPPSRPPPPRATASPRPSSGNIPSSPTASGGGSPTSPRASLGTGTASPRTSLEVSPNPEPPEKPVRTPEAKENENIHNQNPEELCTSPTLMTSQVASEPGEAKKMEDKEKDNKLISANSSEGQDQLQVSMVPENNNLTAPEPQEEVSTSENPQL

Chain of Thymosin alpha-1 (human) (P06454 other isoform, or with tags, fused parts or gaps limits assumed): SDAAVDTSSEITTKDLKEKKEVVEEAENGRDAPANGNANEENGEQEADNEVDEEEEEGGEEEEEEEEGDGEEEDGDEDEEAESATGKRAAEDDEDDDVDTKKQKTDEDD
Chain of Myosin-9 (human) (P35579 2-1960 limits assumed): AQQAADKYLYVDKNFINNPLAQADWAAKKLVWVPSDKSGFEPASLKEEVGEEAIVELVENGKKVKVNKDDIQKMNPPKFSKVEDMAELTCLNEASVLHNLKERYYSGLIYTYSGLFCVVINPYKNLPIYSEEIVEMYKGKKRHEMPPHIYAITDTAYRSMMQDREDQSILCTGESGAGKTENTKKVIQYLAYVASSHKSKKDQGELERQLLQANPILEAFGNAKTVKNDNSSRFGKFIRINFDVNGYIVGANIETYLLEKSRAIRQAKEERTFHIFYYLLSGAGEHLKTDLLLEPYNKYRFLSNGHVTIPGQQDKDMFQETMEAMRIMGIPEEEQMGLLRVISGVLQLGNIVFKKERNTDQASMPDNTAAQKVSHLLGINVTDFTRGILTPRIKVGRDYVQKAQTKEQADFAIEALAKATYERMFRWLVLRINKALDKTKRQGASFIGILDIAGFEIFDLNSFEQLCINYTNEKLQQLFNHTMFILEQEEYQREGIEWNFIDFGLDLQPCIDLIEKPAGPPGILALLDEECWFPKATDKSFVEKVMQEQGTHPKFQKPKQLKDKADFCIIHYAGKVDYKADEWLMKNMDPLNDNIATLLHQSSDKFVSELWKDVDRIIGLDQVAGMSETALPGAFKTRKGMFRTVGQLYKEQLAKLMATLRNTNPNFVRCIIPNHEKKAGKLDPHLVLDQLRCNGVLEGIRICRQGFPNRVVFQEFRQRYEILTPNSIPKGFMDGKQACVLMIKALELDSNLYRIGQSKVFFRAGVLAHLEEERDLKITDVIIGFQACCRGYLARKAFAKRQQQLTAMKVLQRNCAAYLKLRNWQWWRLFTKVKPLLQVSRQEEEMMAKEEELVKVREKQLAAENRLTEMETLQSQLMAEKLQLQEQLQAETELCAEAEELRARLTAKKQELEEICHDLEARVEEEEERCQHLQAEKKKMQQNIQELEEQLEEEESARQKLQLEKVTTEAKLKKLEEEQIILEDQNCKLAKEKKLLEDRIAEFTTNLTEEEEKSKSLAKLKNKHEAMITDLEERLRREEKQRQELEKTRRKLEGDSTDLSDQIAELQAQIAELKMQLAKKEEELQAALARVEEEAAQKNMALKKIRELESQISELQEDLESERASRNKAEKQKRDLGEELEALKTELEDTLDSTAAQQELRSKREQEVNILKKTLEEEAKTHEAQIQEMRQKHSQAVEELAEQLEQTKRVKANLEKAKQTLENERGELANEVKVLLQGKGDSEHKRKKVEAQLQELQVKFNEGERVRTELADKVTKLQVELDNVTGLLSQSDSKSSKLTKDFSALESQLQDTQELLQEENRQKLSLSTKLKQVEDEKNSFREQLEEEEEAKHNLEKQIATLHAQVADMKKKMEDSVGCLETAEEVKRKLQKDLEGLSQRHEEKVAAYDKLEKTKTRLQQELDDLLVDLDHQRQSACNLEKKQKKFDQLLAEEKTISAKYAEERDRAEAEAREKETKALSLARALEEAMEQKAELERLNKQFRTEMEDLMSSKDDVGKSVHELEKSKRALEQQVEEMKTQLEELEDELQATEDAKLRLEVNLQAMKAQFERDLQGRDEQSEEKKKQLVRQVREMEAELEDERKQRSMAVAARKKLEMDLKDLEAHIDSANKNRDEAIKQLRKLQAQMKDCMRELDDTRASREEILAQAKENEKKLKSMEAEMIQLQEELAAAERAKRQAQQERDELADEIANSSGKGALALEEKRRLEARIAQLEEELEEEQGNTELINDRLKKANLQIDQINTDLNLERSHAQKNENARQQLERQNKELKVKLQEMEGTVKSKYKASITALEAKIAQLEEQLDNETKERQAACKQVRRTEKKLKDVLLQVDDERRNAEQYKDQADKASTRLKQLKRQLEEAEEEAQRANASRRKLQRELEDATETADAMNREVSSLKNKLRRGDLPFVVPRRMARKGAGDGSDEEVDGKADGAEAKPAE
Chain of Tropomodulin-3 (human) (Q9NYL9 whole entry, canonical isoform): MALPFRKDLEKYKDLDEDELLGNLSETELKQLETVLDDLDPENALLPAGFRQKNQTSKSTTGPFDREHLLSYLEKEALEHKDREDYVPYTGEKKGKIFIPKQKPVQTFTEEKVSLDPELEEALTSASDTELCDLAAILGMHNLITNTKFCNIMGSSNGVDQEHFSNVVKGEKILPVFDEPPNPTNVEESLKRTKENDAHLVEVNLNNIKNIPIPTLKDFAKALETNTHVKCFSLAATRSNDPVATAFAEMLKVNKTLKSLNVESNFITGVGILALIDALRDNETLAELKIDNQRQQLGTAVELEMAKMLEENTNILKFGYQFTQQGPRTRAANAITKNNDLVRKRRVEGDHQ
Chain of Vimentin (human) (P08670 2-466 limits assumed): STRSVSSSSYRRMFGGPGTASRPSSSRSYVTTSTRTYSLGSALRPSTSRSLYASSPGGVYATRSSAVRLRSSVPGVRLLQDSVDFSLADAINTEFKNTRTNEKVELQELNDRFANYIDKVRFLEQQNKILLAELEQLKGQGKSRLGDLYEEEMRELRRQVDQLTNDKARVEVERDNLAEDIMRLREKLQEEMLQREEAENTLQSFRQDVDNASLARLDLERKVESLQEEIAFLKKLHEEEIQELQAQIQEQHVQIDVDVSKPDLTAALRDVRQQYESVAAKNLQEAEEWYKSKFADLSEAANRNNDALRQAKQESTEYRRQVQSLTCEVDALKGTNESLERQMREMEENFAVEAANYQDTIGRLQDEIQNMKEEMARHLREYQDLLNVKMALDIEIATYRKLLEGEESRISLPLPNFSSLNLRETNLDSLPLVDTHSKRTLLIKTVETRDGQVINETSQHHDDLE
Chain of Tropomyosin alpha-4 chain (human) (P67936 2-248 limits assumed): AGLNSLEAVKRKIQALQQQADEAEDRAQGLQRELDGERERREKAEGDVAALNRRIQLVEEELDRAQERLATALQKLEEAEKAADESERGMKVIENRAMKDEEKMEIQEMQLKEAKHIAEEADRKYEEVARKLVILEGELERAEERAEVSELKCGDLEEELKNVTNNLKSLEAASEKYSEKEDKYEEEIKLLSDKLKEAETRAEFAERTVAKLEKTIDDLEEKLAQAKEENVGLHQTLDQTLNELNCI
Chain of 14-3-3 protein eta (human) (Q04917 2-246 limits assumed): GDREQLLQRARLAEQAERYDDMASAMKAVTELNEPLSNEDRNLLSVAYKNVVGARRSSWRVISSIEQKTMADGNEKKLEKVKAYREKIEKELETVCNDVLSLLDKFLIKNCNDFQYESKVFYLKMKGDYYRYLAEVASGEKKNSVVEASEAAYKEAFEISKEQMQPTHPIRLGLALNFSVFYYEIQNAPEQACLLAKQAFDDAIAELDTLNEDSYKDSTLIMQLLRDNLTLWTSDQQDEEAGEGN
Chain of 14-3-3 protein theta (human) (P27348 whole entry, canonical isoform): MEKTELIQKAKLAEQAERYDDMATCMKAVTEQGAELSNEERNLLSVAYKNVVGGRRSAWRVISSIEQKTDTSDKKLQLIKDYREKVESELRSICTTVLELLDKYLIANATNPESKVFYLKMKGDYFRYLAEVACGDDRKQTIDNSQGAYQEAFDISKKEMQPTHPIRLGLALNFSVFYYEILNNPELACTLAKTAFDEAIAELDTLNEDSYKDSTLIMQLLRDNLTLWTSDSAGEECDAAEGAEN
Chain of Endoplasmin (human) (P14625 22-803 limits assumed): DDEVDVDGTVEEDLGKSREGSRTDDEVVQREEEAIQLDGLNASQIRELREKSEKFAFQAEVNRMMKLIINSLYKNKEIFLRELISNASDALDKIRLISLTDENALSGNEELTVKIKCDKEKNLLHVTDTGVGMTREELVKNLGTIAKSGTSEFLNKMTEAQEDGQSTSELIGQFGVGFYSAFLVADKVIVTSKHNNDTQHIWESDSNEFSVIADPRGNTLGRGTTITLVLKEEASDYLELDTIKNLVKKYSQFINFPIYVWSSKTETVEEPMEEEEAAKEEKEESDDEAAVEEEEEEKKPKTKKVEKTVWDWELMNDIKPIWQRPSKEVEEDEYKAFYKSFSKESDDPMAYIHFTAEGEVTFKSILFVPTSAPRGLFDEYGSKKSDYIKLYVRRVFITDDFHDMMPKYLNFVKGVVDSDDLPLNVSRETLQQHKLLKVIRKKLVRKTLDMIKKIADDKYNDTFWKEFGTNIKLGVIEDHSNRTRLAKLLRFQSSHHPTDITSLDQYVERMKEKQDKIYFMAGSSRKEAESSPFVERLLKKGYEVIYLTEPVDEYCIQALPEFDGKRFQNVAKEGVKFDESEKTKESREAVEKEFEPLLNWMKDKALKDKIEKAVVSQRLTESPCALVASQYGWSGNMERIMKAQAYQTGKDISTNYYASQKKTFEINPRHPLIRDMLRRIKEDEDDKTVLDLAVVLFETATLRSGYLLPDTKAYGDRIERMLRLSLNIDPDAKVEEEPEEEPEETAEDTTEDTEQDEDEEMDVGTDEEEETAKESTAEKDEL

With “PIF-resin (PIF15 affinity ligand on agarose) (peptide)” as the substance, how does the Ave [1] read?
Its Ave is 4.

And the Ave [2]?
The Ave was 1.

And the Inject 1 [2]?
Its Inject 1 is 1.

What about the Inject 2 [2] of the same substance?
Its Inject 2 is 1.

And the Ave (Matrin-3 (human))?
The Ave was 1.

And the Inject 1 (Matrin-3 (human))?
Its Inject 1 is 1.

And the Inject 3 (Matrin-3 (human))?
Its Inject 3 is 1.

And the Ave (Tropomodulin-3 (human))?
Its Ave is 1.

And the Inject 1 (Tropomodulin-3 (human))?
The Inject 1 was 1.

And the Inject 3 (Tropomodulin-3 (human))?
The Inject 3 was 1.

And the Ave [3]?
Its Ave is 4.

What about the Inject 1 [3] of the same substance?
The Inject 1 was 5.

And the Inject 2 [3]?
Its Inject 2 is 4.

And the Ave (Vimentin (human))?
The Ave was 10.

And the Inject 1 (Vimentin (human))?
Its Inject 1 is 9.

And the Inject 2 (Vimentin (human))?
The Inject 2 was 11.

What about the Inject 3 (Vimentin (human)) of the same substance?
Its Inject 3 is 9.

And the Inject 2 (Thrombospondin-1 (human))?
Its Inject 2 is 5.

What about the Inject 3 (Thrombospondin-1 (human)) of the same substance?
Its Inject 3 is 8.

And the Ave (Myosin-9 (human))?
The Ave was 10.

What about the Inject 1 (Myosin-9 (human)) of the same substance?
Its Inject 1 is 11.

What about the Inject 2 (Myosin-9 (human)) of the same substance?
Its Inject 2 is 9.

What about the Inject 3 (Myosin-9 (human)) of the same substance?
Its Inject 3 is 10.

What about the Inject 1 [4] of the same substance?
Its Inject 1 is 4.

What about the Inject 3 (Coronin-1A (human)) of the same substance?
Its Inject 3 is 1.

What about the Ave (Thymosin alpha-1 (human)) of the same substance?
The Ave was 5.

And the Inject 1 (Thymosin alpha-1 (human))?
Its Inject 1 is 5.

And the Inject 2 (Thymosin alpha-1 (human))?
Its Inject 2 is 5.

And the Inject 3 (Thymosin alpha-1 (human))?
The Inject 3 was 4.

And the Inject 1 [5]?
Its Inject 1 is 4.

And the Inject 2 [5]?
The Inject 2 was 1.

And the Ave [6]?
The Ave was 8.

What about the Inject 1 [6] of the same substance?
The Inject 1 was 8.

What about the Inject 3 [6] of the same substance?
Its Inject 3 is 8.

What about the Ave (Plastin-2 (human)) of the same substance?
Its Ave is 1.

What about the Inject 1 (Plastin-2 (human)) of the same substance?
Its Inject 1 is 1.

And the Inject 2 (Plastin-2 (human))?
Its Inject 2 is 1.

And the Ave [7]?
The Ave was 4.

And the Inject 1 [7]?
Its Inject 1 is 4.

And the Inject 3 [7]?
Its Inject 3 is 4.

And the Inject 1 [8]?
Its Inject 1 is 4.

What about the Inject 2 [8] of the same substance?
Its Inject 2 is 4.

What about the Ave [9] of the same substance?
Its Ave is 4.

And the Inject 1 [9]?
The Inject 1 was 4.

What about the Inject 3 [9] of the same substance?
The Inject 3 was 5.

What about the Ave [10] of the same substance?
Its Ave is 1.

What about the Inject 1 [10] of the same substance?
The Inject 1 was 0.

What about the Inject 2 [10] of the same substance?
The Inject 2 was 1.

And the Ave (Hornerin (human))?
The Ave was 1.

And the Inject 1 (Hornerin (human))?
Its Inject 1 is 1.

What about the Inject 2 (Hornerin (human)) of the same substance?
The Inject 2 was 0.

What about the Ave (Endoplasmin (human)) of the same substance?
Its Ave is 1.

What about the Inject 1 (Endoplasmin (human)) of the same substance?
The Inject 1 was 0.

What about the Inject 3 (Endoplasmin (human)) of the same substance?
The Inject 3 was 1.

What about the Ave [11] of the same substance?
The Ave was 1.

And the Inject 1 [11]?
The Inject 1 was 1.

And the Inject 3 [11]?
Its Inject 3 is 1.

What about the Inject 2 (Protein S100-A8 (human)) of the same substance?
The Inject 2 was 1.

And the Ave [12]?
The Ave was 7.

What about the Inject 1 [12] of the same substance?
The Inject 1 was 6.

And the Inject 2 [12]?
The Inject 2 was 7.

And the Inject 3 [12]?
Its Inject 3 is 7.

And the Ave [13]?
The Ave was 1.

What about the Inject 2 [13] of the same substance?
Its Inject 2 is 1.

What about the Inject 3 [13] of the same substance?
Its Inject 3 is 1.

And the Inject 3 [14]?
The Inject 3 was 1.

And the Inject 2 (Gelsolin (human))?
Its Inject 2 is 1.

And the Inject 3 (Gelsolin (human))?
Its Inject 3 is 1.

And the Inject 1 [15]?
The Inject 1 was 4.

And the Inject 3 [15]?
Its Inject 3 is 1.

What about the Inject 2 (Calreticulin (human)) of the same substance?
Its Inject 2 is 4.

What about the Ave [16] of the same substance?
Its Ave is 1.

And the Inject 1 [16]?
The Inject 1 was 1.

What about the Inject 2 [16] of the same substance?
The Inject 2 was 1.

What about the Inject 3 [17] of the same substance?
The Inject 3 was 4.

And the Ave [18]?
The Ave was 1.

And the Inject 1 [18]?
Its Inject 1 is 1.

What about the Inject 3 [18] of the same substance?
The Inject 3 was 0.
